Results as given in patent US12679878B2, “CRF2 receptor agonists and their use in therapy” (SANOFI, priority 2020, dated 2026).
≈ marks a conversion by molar mass, not a printed value. Read-outs that look alike come from different tables or passages of the source. Starred links: 1 amine or outer side, 2 acyl side, 3 side chain; linkers in the order of their positions; H or OH if unused. Non-standard residues stand in square brackets, D forms with d. Residues, ends and D or L forms follow the SMILES beside them. Groups on a side chain read outwards from the residue. No end group written: not given here. *: point of attachment. C20 diacid = O=C(O)CCCCCCCCCCCCCCCCCCC(=O)*; C18 diacid = O=C(O)CCCCCCCCCCCCCCCCC(=O)*; γGlu = O=C(O)[C@H](CCC(=O)[*:2])N[*:1]; AEEA = NCCOCCOCC(=O)O; Aib = CC(C)(N)C(=O)O

T1: human CRF2α receptor (Homo sapiens, UniProt Q13324)
T1 construct: expressed in transfected cells; host or cells: TeloHEAC
T1 sequence (Q13324 1-411): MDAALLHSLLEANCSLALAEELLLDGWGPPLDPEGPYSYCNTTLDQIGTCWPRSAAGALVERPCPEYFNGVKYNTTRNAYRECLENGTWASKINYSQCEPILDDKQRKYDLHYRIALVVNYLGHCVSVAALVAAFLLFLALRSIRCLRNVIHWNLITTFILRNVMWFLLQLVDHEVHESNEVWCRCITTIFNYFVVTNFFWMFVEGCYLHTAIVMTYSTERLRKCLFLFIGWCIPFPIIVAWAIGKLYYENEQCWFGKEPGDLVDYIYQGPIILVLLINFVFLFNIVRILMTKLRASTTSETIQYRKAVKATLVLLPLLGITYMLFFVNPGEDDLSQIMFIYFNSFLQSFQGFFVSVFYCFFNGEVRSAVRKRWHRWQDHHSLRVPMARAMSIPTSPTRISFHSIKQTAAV

T2: endogenous human CRF2 (Homo sapiens, UniProt Q13324)
T2 construct: endogenous in cells; host or cells: NCI-H82
T2 sequence (Q13324 1-411): T1 sequence (Q13324 1-411)

T3: CRF1R receptor (Homo sapiens, UniProt P34998)
T3 construct: host or cells: CHO-K1 clone 2
T3 sequence (P34998 24-415): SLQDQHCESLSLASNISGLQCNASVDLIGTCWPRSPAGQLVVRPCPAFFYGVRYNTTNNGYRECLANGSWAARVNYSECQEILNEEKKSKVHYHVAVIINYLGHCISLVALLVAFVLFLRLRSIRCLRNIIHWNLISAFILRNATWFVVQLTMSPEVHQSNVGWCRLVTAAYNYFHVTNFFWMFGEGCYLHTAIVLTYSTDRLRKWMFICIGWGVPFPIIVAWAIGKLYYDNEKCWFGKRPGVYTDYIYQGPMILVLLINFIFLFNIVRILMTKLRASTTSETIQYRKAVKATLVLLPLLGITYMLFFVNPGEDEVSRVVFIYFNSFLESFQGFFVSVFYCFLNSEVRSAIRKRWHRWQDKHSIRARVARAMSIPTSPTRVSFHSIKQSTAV

T4: recombinant human CRF2 (HEK cell membranes) (human, UniProt Q13324 1-411)
T4 construct: Whole receptor in membranes prepared from HEK cells; also called CRF2a (h); CRF2 receptor
T4 sequence (looked up): T1 sequence (Q13324 1-411)

T5: endogenous human CRF2 (NCI-H82 cells) (human, UniProt Q13324 20-411)
T5 sequence (looked up): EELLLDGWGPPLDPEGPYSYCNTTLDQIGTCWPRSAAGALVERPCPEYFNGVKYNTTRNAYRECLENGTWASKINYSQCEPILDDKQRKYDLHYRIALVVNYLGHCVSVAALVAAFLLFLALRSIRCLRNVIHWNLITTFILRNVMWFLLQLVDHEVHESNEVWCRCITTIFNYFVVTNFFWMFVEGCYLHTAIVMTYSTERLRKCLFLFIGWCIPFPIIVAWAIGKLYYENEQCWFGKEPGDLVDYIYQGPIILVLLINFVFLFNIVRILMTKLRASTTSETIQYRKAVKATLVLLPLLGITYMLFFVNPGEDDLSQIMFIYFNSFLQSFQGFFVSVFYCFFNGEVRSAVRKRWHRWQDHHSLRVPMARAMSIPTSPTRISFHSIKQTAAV

T6: anti-target CRF1R receptor (UniProt P34998 24-415, limits assumed)
T6 sequence (looked up): T3 sequence (P34998 24-415)

B1: peptide of SEQ ID NO: 35 (peptide)
peptide: IVLSLDVPIKLK([AEEA-AEEA-γGlu-C18 diacid])KILLEQEKQKKQREQAETNKQILAQV-NH2
modifications: N-terminus assumed
SMILES: CC[C@H](C)[C@H](N)C(=O)N[C@H](C(=O)N[C@@H](CC(C)C)C(=O)N[C@@H](CO)C(=O)N[C@@H](CC(C)C)C(=O)N[C@@H](CC(=O)O)C(=O)N[C@H](C(=O)N1CCC[C@H]1C(=O)N[C@H](C(=O)N[C@@H](CCCCN)C(=O)N[C@@H](CC(C)C)C(=O)N[C@@H](CCCCNC(=O)COCCOCCNC(=O)COCCOCCNC(=O)CC[C@H](NC(=O)CCCCCCCCCCCCCCCCC(=O)O)C(=O)O)C(=O)N[C@@H](CCCCN)C(=O)N[C@H](C(=O)N[C@@H](CC(C)C)C(=O)N[C@@H](CC(C)C)C(=O)N[C@@H](CCC(=O)O)C(=O)N[C@@H](CCC(N)=O)C(=O)N[C@@H](CCC(=O)O)C(=O)N[C@@H](CCCCN)C(=O)N[C@@H](CCC(N)=O)C(=O)N[C@@H](CCCCN)C(=O)N[C@@H](CCCCN)C(=O)N[C@@H](CCC(N)=O)C(=O)N[C@@H](CCCNC(=N)N)C(=O)N[C@@H](CCC(=O)O)C(=O)N[C@@H](CCC(N)=O)C(=O)N[C@@H](C)C(=O)N[C@@H](CCC(=O)O)C(=O)N[C@H](C(=O)N[C@@H](CC(N)=O)C(=O)N[C@@H](CCCCN)C(=O)N[C@@H](CCC(N)=O)C(=O)N[C@H](C(=O)N[C@@H](CC(C)C)C(=O)N[C@@H](C)C(=O)N[C@@H](CCC(N)=O)C(=O)N[C@H](C(N)=O)C(C)C)[C@@H](C)CC)[C@@H](C)O)[C@@H](C)CC)[C@@H](C)CC)C(C)C)C(C)C

Experiments:
rat CRF2R α receptor [1] = assay: cAMP agonism at rat CRF2R α receptor in A7R5 rat aortic smooth muscle cells (Example 8); type: cell-based; details: cAMP HTRF, A7R5 rat aortic smooth muscle cell line, 0% HSA
Procedure, shortened: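 Thawed cryopreserved A7R5 cells in HBSS/20 mM HEPES (0 or 0.1% HSA) with 2 mM IBMX, 2000 cells/well, were exposed to compound for 30 min at room temperature. cAMP was read by HTRF (665/620 nm ratio) after 1 h with lysis reagents. Activity was normalised to 1000 nM urocortin 2 as 100%, and EC50 was taken as the concentration giving 50% of maximal activation.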

human CRF2α receptor = target: T1, human CRF2α receptor; assay: cAMP agonism at human CRF2 α receptor in TeloHEAC cells (Example 7); type: cell-based; details: cAMP HTRF, TeloHEAC cells stably expressing human CRF2 α
Procedure, shortened: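 Percent activation was referenced to 1000 nM UCN2 (100%), and EC50 values taken as concentrations giving half of maximal response. The read-out was a homogeneous time-resolved fluorescence cAMP kit, fluorescence ratio 665/620 nm. Thawed cells (2000/well) saw compound for 30 min at RT in buffer with 2 mM IBMX and 0%/0.1% HSA.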

endogenous human CRF2 = target: T2, endogenous human CRF2; assay: cAMP agonist effect in NCI-H82 cells expressing endogenous human CRF2 (Example 10); type: cell-based; details: cAMP HTRF, 5 min activation
Protocol: The agonist effect of the compounds was assessed in NCI-H82 cells expressing endogenous human CRF2.
NCI-H82 cells in suspension were plated in low-volume 384-well plates at a density of 30000 cells/well in 5 μl of test medium (RPMI+1 mM IBMX). The plates were briefly centrifuged at 800 rpm to allow the cell suspension to move to the bottom of the wells and then incubated for 2 hours at 37° C. in 5% CO2. 5 μl of test compounds at appropriate concentrations (10-11 to 3×10-7) diluted in test medium were then transferred in 384 wells plates. After 5 min of activation, the reaction was stopped by addition of HTRF revelation reagents with a multidrop dispenser. The two reagents were 5 μl/well of Anti-CAMP-cryptate diluted 20-fold in conjugate and lysis buffer and 5 μl/well of cAMP-D2 diluted 20-fold in conjugate and lysis buffer. After one-hour incubation at room temperature in the dark, the plates were read on a Clariostar apparatus.

[2] = Solubility in buffer systems by UPLC-UV (Example 13); type: physicochemical
Procedure, shortened: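 The supernatant was diluted 1:10 and quantified by UPLC-UV peak area against a reference standard curve, correcting for sequence-based extinction coefficients.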

CRF1R receptor = target: T3, CRF1R receptor; assay: cAMP activity at anti-target CRF1R, CRF1R-overexpression CHO cell line (Example 9); type: cell-based; details: CRF1R-overexpression CHO cell line
Procedure, shortened: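 cAMP accumulation was read by HTRF after 30 min at room temperature of compound treatment. Cells were cryopreserved CHO cells overexpressing CRF1R, plated at 2000/well in IBMX (2 mM)-containing HBSS/HEPES buffer with 0 or 0.1% HSA. Activity was normalized to 1000 nM UCN2 as 100%.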

rat CRF2R α receptor [3] = target: rat CRF2R α receptor (rat, UniProt P47866 20-411); assay: cell-based or functional assay
[4] = target: T4, recombinant human CRF2 (HEK cell …); assay: Hill coefficient of the competition curve against [125]sauvagine, HEK membranes with recombinant human CRF2
Protocol: (§1) HEK cells expressing recombinant human CRF2 were used as a source of receptor for membrane preparation.
(§2) IC50 values (concentration causing a half-maximal inhibition of control specific binding) and Hill coefficients (nH) were determined by non-linear regression analysis of the competition curves generated with mean replicate values using Hill equation curve fitting. The inhibition constants (Ki) were calculated using the Cheng Prusoff equation [Ki=IC50/(1+L/KD) where L is the concentration of radioligand in the assay, and KD is the affinity of the radioligand for the receptor). A Scatchard plot was used to determine the KD.

[5] = target: T5, endogenous human CRF2 (NCI-H82 cells); assay: cell-based or functional assay
[6] = target: T6, anti-target CRF1R receptor; assay: cell-based or functional assay
[7] = target: T4, recombinant human CRF2 (HEK cell …); assay: radioligand competition against [125]sauvagine (0.1 nM), HEK membranes with recombinant human CRF2; Cheng Prusoff
Protocol: as §1, §2

Row | Molecule | EC50 (rat CRF2R α receptor [1]) [nM] | EC50 (human CRF2α receptor; 0% HSA, read-out: EC50 [nM], 0% HSA) [nM] | EC50 (human CRF2α receptor; 0.1% HSA, read-out: EC50 [nM], 0.1% HSA) [nM] | EC50 (endogenous human CRF2) [nM] | solubility at 1 h ([2]; pH 4.5, Solubility in Buffer B [mg/ml]) [mg/mL] | solubility at 1 h ([2]; pH 7.4, Solubility in Buffer C [mg/ml]) [mg/mL] | EC50 (CRF1R receptor; 0% HSA) [nM] | Emax (CRF1R receptor; read-out: Emax (%)) [%] | EC50 [nM], 0% HSA (cAMP, A7R5 cells) (rat CRF2R α receptor [3]) [nM] | nH [4] | EC50 [nM] (cAMP, NCI-H82 cells) [5] | EC50[nM] 0% HSA (cAMP, CRF1R-overexpression CHO cells) [6] [nM] | Emax (%) (cAMP, CRF1R-overexpression CHO cells) [6] | Ki [7] [nM]
1 | CC[C@H](C)[C@H](N)C(=O)N[C@H](C(=O)N[C@@H](CC(C)C)C(=O)N[C@@H](CO)C(=O)N[C@@H](CC(C)C)C(=O)N[C@@H](CC(=O)O)C(=O)N[C@H](C(=O)N1CCC[C@H]1C(=O)N[C@H](C(=O)N[C@@H](CCCCN)C(=O)N[C@@H](CC(C)C)C(=O)N[C@@H](CCCCNC(=O)COCCOCCNC(=O)COCCOCCNC(=O)CC[C@H](NC(=O)CCCCCCCCCCCCCCCCCCC(=O)O)C(=O)O)C(=O)N[C@@H](CCC(N)=O)C(=O)N[C@H](C(=O)N[C@@H](CC(C)C)C(=O)N[C@@H](CC(C)C)C(=O)N[C@@H](CCC(=O)O)C(=O)N[C@@H](CCC(N)=O)C(=O)N[C@@H](CCC(=O)O)C(=O)N[C@@H](CCCCN)C(=O)N[C@@H](CCC(N)=O)C(=O)N[C@@H](CCCCN)C(=O)NC(C)(C)C(=O)N[C@@H](CCC(N)=O)C(=O)N[C@@H](CCCNC(=N)N)C(=O)N[C@@H](CCC(=O)O)C(=O)N[C@@H](CCC(N)=O)C(=O)N[C@@H](C)C(=O)N[C@@H](CCC(=O)O)C(=O)N[C@H](C(=O)N[C@@H](CC(N)=O)C(=O)N[C@@H](CCCCN)C(=O)N[C@@H](CCC(N)=O)C(=O)N[C@H](C(=O)N[C@@H](CC(C)C)C(=O)N[C@@H](C)C(=O)N[C@@H](CCC(N)=O)C(=O)N[C@H](C(N)=O)C(C)C)[C@@H](C)CC)[C@@H](C)O)[C@@H](C)CC)[C@@H](C)CC)C(C)C)C(C)C [compound 81] (H-IVLSLDVPIKLK([AEEA-AEEA-γGlu-C20 diacid])QILLEQEKQK[Aib]QREQAETNKQILAQV-NH2) | 0.94 | 0.14 | 18.5 | 110 | 20.4 (≈ 3.97 mM) | > 9.6 | > 1000 | 23.3 | – | – | – | – | – | –
2 | B1 | – | – | – | – | – | – | – | – | 0.81 | 1.7 | 23 | > 1000 | 1.77 | 7.9
3 | FTLSLDVPTKIK([AEEA-AEEA-γGlu-C20 diacid])QILLKQQKQKKERQQAEKNKQLLEQI-NH2 [peptide of SEQ ID NO: 59] | – | – | – | – | – | – | – | – | 0.34 | 0.6 | 6.8 | > 1000 | 11.1 | 7.2
